For data set [1], the target named is T1, Hela cell EGFR (Homo sapiens, UniProt P00533).
T1 construct: soybean produced hEGF induces a rapid phosphorylation of Hela cell EGFR; endogenous in cells; host or cells: HeLa cells (American Tissue Culture Collection)
Briefly: Immunocytochemistry assay of EGFR internalization in Hela cells. In kind it is cell-based. To be noted: Hela cells treated 6 hours; FIG. 5C. As for the experimental part: (§1) Hela cells (obtained from American Tissue Culture Collection) were cultured in Minimum Essential Media (MEM) complemented with 10% Fetal Bovine Serum (FBS), 100 units/ml penicillin, and 100 μg/ml streptomycin. For western blotting assay, cells grown in 6-well plate were kept in serum free MEM media for 24 hours. Cells were then either kept in serum free medium (control) or stimulated with soymilk alone, soy EGF or commercial recombined hEGF for different time period as indicated. Cells were lysed by directly adding 1×SDS sample buffer (50 mM Tris-HCl, pH 6.8, 10% glycerol, 2% SDS and 5% 13-ME) to the cells after washing 3 times with 1×PBS. EGF bio-activity was determined via EGFR phosphorylation and down-stream AKT phosphorylation. Total EGFR was also measured since EGFR is known to undergo internalization when stimulated with EGF. Antibodies used in western blot are anti-p-EGFR (Tyr1068) (#2234, Cell Signaling Technology), anti-total EGFR (#06-847, Millipore), anti-p-AKT (#4060, Cell Signaling Technology) and anti-Lamin B1 (#13435, Cell Signaling Technology). […] EGFR was labeled using anti-EGFR antibody (#4267, Cell Signaling Technology) and detected with Alexa Fluor 594 Goat anti-rabbit IgG (#A11012, life technology). […]

Data set [2] concerns the target T1, Hela cell EGFR. Nature of the data set: EGF bioactivity in Hela cells by western blotting (pEGFR, total EGFR). It counts as cell-based. To be noted: for overall EGF bioactivity: internalization, degradation and phosphorylation of EGFR: HeLa cells, compared with commercial rhEGF. As for the experimental part: Hela cells (obtained from American Tissue Culture Collection) were cultured in Minimum Essential Media (MEM) complemented with 10% Fetal Bovine Serum (FBS), 100 units/ml penicillin, and 100 μg/ml streptomycin. For western blotting assay, cells grown in 6-well plate were kept in serum free MEM media for 24 hours. […] Cells were lysed by directly adding 1×SDS sample buffer (50 mM Tris-HCl, pH 6.8, 10% glycerol, 2% SDS and 5% 13-ME) to the cells after washing 3 times with 1×PBS. EGF bio-activity was determined via EGFR phosphorylation and down-stream AKT phosphorylation. Total EGFR was also measured since EGFR is known to undergo internalization when stimulated with EGF. Antibodies used in western blot are anti-p-EGFR (Tyr1068) (#2234, Cell Signaling Technology), anti-total EGFR (#06-847, Millipore), anti-p-AKT (#4060, Cell Signaling Technology) and anti-Lamin B1 (#13435, Cell Signaling Technology). For immunocytochemistry assay, cells were grown on coverslip in 6-well plate and kept in serum free media for 24 hours before stimulation, cells were then either kept in serum free media (control) or stimulated with human or soy EGF for 6 hours. Cells were washed with PBS and fixed with 4% formalin. EGFR was labeled using anti-EGFR antibody (#4267, Cell Signaling Technology) and detected with Alexa Fluor 594 Goat anti-rabbit IgG (#A11012, life technology). The cell nuclei were shown using mounting medium with DAPI (#H-1200, Vectorshield).
A general note: Immunoblotting shows a protein as a band on a membrane.

Data set [3] in a line: Stability of rhEGF in soymilk, read out by EGFR bioactivity in Hela cells. It counts as physicochemical. To be noted: in soymilk over 24 hours; bioactivity compared with control rhEGF; FIG. 5B. As for the experimental part: as §1

The values that follow come from patent US10889826B2, “Methods and compositions for producing epidermal growth factor (EGF) in soybeans” (ARIZONA BOARD OF REGENTS ON BEHALF OF THE UNIVERSITY OF …, priority 2017, dated 2021).

In the case of “ShEGF: human EGF produced in transgenic soybean seeds from a synthetic soybean codon optimized hEGF gene with N-terminal ER signal (SEQ ID NO: 1) (SLSSAENSDSECPLSHDGYCLHDGVCMYIEALDKYACNCVVGYIGERCQYRDLKWWELR; Modified EGF DNA sequence)”, the “internalization of the EGFR (immunohistochemical assay)” value in data set [1] is recorded as “induces internalization of the EGFR comparable to that from control rhEGF”. For the same substance, the “overall EGF bioactivity: internalization, degradation and phosphorylation of EGFR” value is “bioactive and comparable to commercially available hEGF” in data set [2] (listed as EGF protein produced in soybean seed); “indistinguishable from the bioactivity of commercial rhEGF” in data set [2] (listed as soybean-produced hEGF). For the same substance, the “internalization and degradation of EGFR (decrease in abundance by immunoblot)” value in data set [2] (Hela cells, 0.1 μg/ml, FIG. 5B) is “induces an internalization and degradation of EGFR”. For the same substance, the “EGFR phosphorylation (pEGFR)” value in data set [2] (Hela cells, soymilk from ShEGF soybeans at 0.1, 0.05, 0.025 μg/ml, FIG. 5A) is listed as “induced pEGFR comparable to control rhEGF”. Besides, in data set [2] (Hela cells, soymilk from seeds producing ShEGF at 0.1, 0.05, 0.025 μg/ml, FIG. 5A), the EGFR degradation entry is “induced concentration-dependent EGFR degradation comparable to the effect of rhEGF”.
As to rhEGF: commercial recombinant human EGF, the “degradation of EGF in soymilk” value in data set [3] was “not degraded in soymilk over 24 hours”.
